Assay results taken from patent US12491259B2, “Anti-variable MUC1* antibodies and uses thereof” (Minerva Biotechnologies Corporation, priority 2022, dated 2025).

B1: MN20A10-MMAF (conjugate)
VH: QVQLVESGGGLVKPGGSLRLSCAASGFTFSTYAMSWIRQAPGKGLEWVASIGRAGSTYYSDSVKGRFTISRDNAKNSLYLQMNSLRAEDTAVYYCARGPIYNDYDEFAYWGQGTLVTVSS
VL: EIVLTQSPATLSLSPGERATLSCKSSQSVLYSSNQKNYLAWYQQKPGQAPRLLIYWASTRESGIPARFSGSGSGTDFTLTISSLEPEDFAVYYCHQYLSSLTFGGGTKVEIKR
B2: MNC2-Deruxtecan (conjugate)
VH: EVQLVESGGGLVKPGGSLRLSCAASGFTFSGYAMSWVRQAPGKGLEWVSTISSGGTYIYYPDSVKGRFTISRDNAKNSLYLQMNSLRAEDTAVYYCARLGGDNYYEYFDVWGKGTTVTVSS
VL: DIVLTQSPASLAVSPGQRATITCRASKSVSTSGYSYMHWYQQKPGQPPKLLIYLASNLESGVPARFSGSGSGTDFTLTINPVEANDTANYYCQHSRELPFTFGGGTKVEIKRT

Experiments:
[1] = system: T47D-MUC1* breast cancer cells; test: xCELLigence real-time killing assay (impedance); format: cell-based, human; conditions: for ADC concentration at which essentially all (near total) tumor cells were killed: readout 120 hours post ADC addition
Description: In this assay, impedance is measured in real-time. When the adherent cancer cells are killed and come off of the electrode surface, impedance (insulation) decreases. […] Either MNC2-MMAE, DAR 4.1, MN20A10-MMAE, DAR 5.8, MNC2-MMAF, DAR 3.7, MN20A10-MMAF, DAR 3.8, MNC2-Deruxtecan, DAR 7.2, or MN20A10-Deruxtecan, DAR 4.6, was then added to the cancer cells. […] Taxol and Triton are added as the positive killing control. […] Taxol and Triton are added as the positive killing control.
In this assay, impedance is measured in real-time. When the adherent cancer cells are killed and come off of the electrode surface, impedance (insulation) decreases. […] Either MNC2-Exatecan, DAR 8.2, MNC2-Deruxtecan, DAR 4.0, MNC2-MMAE, DAR 4.1, or free Exatecan at 50 μM, was then added to the cancer cells.
To assess real-time killing of target cancer cells including breast cancer cells (T47D), non-small cell lung cancer cells (NCI-H1975) and pancreatic cancer cells (HP AF II) assays were performed on an xCELLigence RTCA MP Instrument (Agilent). Target Cancer cells were seeded onto a multi-electrode well plate at a density of 5000 cells/well (100 μL of a 50,000 cells/mL stock) and incubated for 24 hr in a 37° C./5% CO2 incubator. mAb MNC2 ADCs or mAb MN20A10-ADCs were prepared as a 2× solution in corresponding growth media and 100 μL of each concentration was added to target cells. As a positive control (100% cell killing) cells were treated with either 1% triton or 1 μM Taxol instead of ADC. After 40-120 hours incubation in a 37° C./5% CO2 incubator cell killing was assessed. In this assay, impedance is measured in real-time. When the adherent cancer cells are killed and come off the electrode surface, impedance (insulation) decreases.
MNC2-ADCs and MN20A10-ADCs were also assayed for their ability to kill both low and high MUC1* expressing cells by monitoring killing in real-time using an xCELLigence instrument. In the xCelligence system, target cancer cells, which are adherent, are plated onto electrode array 96-well plates. Adherent cells insulate the electrode and increase the impedance. The number of adherent cancer cells is directly proportional to impedance. […] Therefore, increasing impedance reflects the growth of the cancer cells and decreasing impedance reflects the killing of the cancer cells.

[2] = system: T47D-MUC1* breast cancer cells; test: ADC cell killing, photographs and PrestoBlue live/dead cell assay; format: cell-based, human; conditions: 500 nM and 6.2 nM, 120 hours
Description: T47D-MUC1* is a cell line in which T47D cells have been transduced to express even more MUC1*. MNC2-ADC was incubated with T47D-WT cells (FIG. 10A-10G) or T47D-MUC1* cells (FIG. 11A-11G). […] These experiments are shown as just one example. […] The toxin that is attached to the anti-MUC1* antibody may be one of several known to those skilled in the art. Similarly, MNC2 may be human or humanized.
In this next experiment, a valine-citrulline p-aminobenzylcarbamate (VC-PAB) linker was used to connect the deglycosylated antibody and the toxin. The linker is separately coupled to the MMAE at one end, then the other end is reacted with maleimide, then coupled to the antibody after reduction through alkylation. MMAE inhibits cell division by blocking the polymerization of tubulin. […] The viability of the 72 hour co-cultures was measured using a cell death indicator called PrestoBlue™ (Thermo Fisher Scientific, Waltham, MA) (FIG. 17). […]
As another example of how antibodies of the invention can be incorporated into ADCs, antibody drug conjugates, for the treatment of MUC1* positive cancers, a toxin was attached to another anti-MUC1* antibody, 20A10. […] The viability of the 72 hour co-cultures was measured using a cell death indicator called PrestoBlue™ (Thermo Fisher Scientific, Waltham, MA) (FIG. 19). […]

| Molecule | ADC concentration at which essentially all the tumor cells are killed ([1]; readout 40 hours post ADC addition) [nM] | ADC concentration at which essentially all (near total) tumor cells were killed [1] [nM] | killing effect in photographs [2] | concentration as low as which cancer cells are potently killed ([1]; readout 0 to 120 hours, MNC2-Exatecan DAR 8.2, MNC2-Deruxtecan DAR 4.0 (FIG. 55)) |
| --- | --- | --- | --- | --- |
| B1 | 56 | 19 | – | – |
| B2 | – | 6 | significant decrease in cell number | as low as 6.2 nM and even as low as 2.1 nM |
